In PMC4990313 (ACS Catalysis, 2013):

Molecular target: the molecule itself
Experiment: crystal structure; sitting drop vapor diffusion at 20 °C, 100 mM KH2PO4/citrate pH 4.0-5.0, PEG 300 35-50%; holo, NADP(H)-soaked (binary) and NADP+ + HMCA-soaked (ternary) crystals; dimer interface analysed with PISA

B1: double bond reductase from Nicotiana tabacum (NtDBR) (enzyme, UniProt Q9SLN8 1-343, looked up)
chain: MAEEVSNKQVILKNYVTGYPKESDMEIKNVTIKLKVPEGSNDVVVKNLYLSCDPYMRSRMRKIEGSYVESFAPGSPITGYGVAKVLESGDPKFQKGDLVWGMTGWEEYSIITPTQTLFKIHDKDVPLSYYTGILGMPGMTAYAGFHEVCSPKKGETVFVSAASGAVGQLVGQFAKMLGCYVVGSAGSKEKVDLLKSKFGFDEAFNYKEEQDLSAALKRYFPDGIDIYFENVGGKMLDAVLVNMKLYGRIAVCGMISQYNLEQTEGVHNLFCLITKRIRMEGFLVFDYYHLYPKYLEMVIPQIKAGKVVYVEDVAHGLESAPTALVGLFSGRNIGKQVVMVSRE
- stoichiometry N: 2
